Target: TBC1D9 (UniProt Q6ZT07)
Experiment: co-IP of GFP-TBK1 and FLAG-TBC1D9
Conditions: reference: GFP-TBK1 wild type; sites S172

- binding against the reference: lost
Substance: TBK1 (from UniProt Q9UHD2) GFP-TBK1 S172A

Source: paper PMC7005872
